Here are results for two molecules from patent US20190016816A1 (APTEVO RESEARCH AND DEVELOPMENT, published 2019).

One assay deals with human CD137 on cells (human, UniProt Q07011 24-255). Briefly: cell-based or functional assay.
Assay [1] has as its target T1, human 5T4 on cells (human, UniProt Q13641 32-420).
T1 construct: also called TPBG; hu5T4
T1 sequence: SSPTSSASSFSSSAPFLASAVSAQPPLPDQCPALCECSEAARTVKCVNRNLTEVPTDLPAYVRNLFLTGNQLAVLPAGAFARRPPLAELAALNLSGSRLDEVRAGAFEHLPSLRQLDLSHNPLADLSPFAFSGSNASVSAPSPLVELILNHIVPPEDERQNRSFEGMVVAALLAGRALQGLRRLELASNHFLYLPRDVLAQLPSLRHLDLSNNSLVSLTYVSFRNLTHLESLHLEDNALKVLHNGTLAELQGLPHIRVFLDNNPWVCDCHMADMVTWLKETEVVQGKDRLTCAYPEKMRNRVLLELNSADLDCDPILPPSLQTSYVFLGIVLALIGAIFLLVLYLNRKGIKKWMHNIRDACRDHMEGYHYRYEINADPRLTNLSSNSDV
Briefly: flow cytometry, MDA.MB-231 cells, PE goat anti-human Fc. Here is the method:
A 3-fold titration of ALG.APV-210 construct (ranging from 100 nM to 0.14 nM) was incubated with the human 5T4-expressing cell lines for 40 minutes in FACS buffer at 4° C., washed 3 times, and detected with PE-labeled, goat-anti-human Fc secondary antibody (Jackson ImmunoResearch). Binding of ALG.APV-210 was detected by flow cytometry. All samples were run in duplicates. Nonlinear regression analysis to determine EC₅₀ values was performed in GraphPad Prism 6® graphing and statistics software.

The next assay concerns the target T2, FcγRIIa (CD32a His131) (UniProt P12318 34-317, limits assumed).
T2 construct: whole, on cells; allotype His131 as printed
T2 sequence (looked up): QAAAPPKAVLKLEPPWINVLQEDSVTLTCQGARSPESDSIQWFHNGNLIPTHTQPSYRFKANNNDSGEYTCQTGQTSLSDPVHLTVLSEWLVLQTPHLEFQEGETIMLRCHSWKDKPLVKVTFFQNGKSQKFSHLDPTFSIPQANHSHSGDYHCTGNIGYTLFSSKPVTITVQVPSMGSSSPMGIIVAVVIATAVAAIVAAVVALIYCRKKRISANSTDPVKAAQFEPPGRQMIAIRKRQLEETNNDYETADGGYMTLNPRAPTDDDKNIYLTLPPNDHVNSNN
Kind of assay: flow cytometry, CHO cells stably expressing CD32a His131, fluorescent anti-human IgG secondary, MFI (mean). An excerpt: ALG.APV-210 contains mutations introduced to prevent interaction with Fcγ receptors (FcγR) that could lead to FcγR-mediated T-cell activation or ADCC, ADCP, CDC etc. Binding of ALG.APV-210 was therefore tested on CHO cell transfectants stably expressing the following FcγR: FcγRI (CD64), FcγRIIa (CD32a His131), FcγRIIb (CD32b), FcγRIIIa (CD16a Val158 and CD16a Phe158), and FcγRIIIb (CD16b). Untransfected CHO cells were used as negative control. A control human IgG1 molecule was used as a positive control. Different concentrations of ALG.APV-210 or control IgG1 were incubated with the FcγR-expressing cell lines, washed, and labeled with a secondary anti-human IgG reagent. Binding of ALG.APV-210 and the control IgG1 was detected by flow cytometry.

In assay [2] the target is T1, human 5T4 on cells. Kind of assay: flow cytometry, HT29 cells (endogenous human 5T4), biotinylated ALG.APV-210 + streptavidin-PE, 1 of 2 experiments. Here is the method:
(§1) Prior to the FACS staining, all cell lines were characterized for their 5T4 expression levels using a receptor density kit (Quantum Simply Cellular, anti-human IgG, Bangs Laboratories, Inc). Adherent cell lines were cultured according to their supplier's instructions and were harvested from their cell culture flasks using Trypsin/EDTA, counted in R10 medium in a Burker chamber, and diluted in FACS buffer (PBS+0.5% BSA, 0.05% NaN₃) to a concentration of 4×10⁶ cells/mL. 50 μL (0.20×10⁶) of cell solution was added to a 96-well FACS staining plate (Falcon #351190). Cells were incubated for 20 min in 4° C. with 50 μL of the biotinylated ALG.APV-210 (2× final concentration). The antibodies were added in a serial dilution starting at 20 μg/mL titrating down in a 12 step ½ dilution down to 0.010 μg/mL. […] Cells were analysed for ALG.APV-210 binding using flow cytometry (FACSVerse) by gating on single cells. MFI values (secondary antibody only subtracted) from 1 out of 2 independent experiments, as well as normalized data and EC₅₀-values of pooled data from 2 experiments were determined and plotted using GraphPad Prism 7, non-linear regression log (agonist) vs. normalized response—variable slope.
(§2) The binding (EC₅₀) of the biotinylated ALG.APV-210 to 5T4 when expressed on cells, either at endogenous levels on human tumor cells or on cells transfected to express 5T4 was assessed. […]
Background: A flow cytometer gives signals particle by particle.

Assay [3] deals with T1, human 5T4 on cells. Briefly: flow cytometry, BxPC-3 cells, streptavidin-PE, normalized MFI of 2 pooled experiments. On the procedure:
as §1, with “μg/mL. Following 2× washing with FACS buffer, cells were incubated for 30 min in 4° C. with 100 μL of a secondary antibody (streptavidin-PE, BD #554061, diluted 1/500).” for “μg/mL.”

Assay [4] deals with T1, human 5T4 on cells. Briefly: flow cytometry, CT26 cells transfected with human 5T4 (low clone), biotinylated ALG.APV-210 + streptavidin-PE, 1 of 2 experiments. On the procedure: as §1, §2

human CD137 on cells, sequence (Q07011 24-255 limits assumed): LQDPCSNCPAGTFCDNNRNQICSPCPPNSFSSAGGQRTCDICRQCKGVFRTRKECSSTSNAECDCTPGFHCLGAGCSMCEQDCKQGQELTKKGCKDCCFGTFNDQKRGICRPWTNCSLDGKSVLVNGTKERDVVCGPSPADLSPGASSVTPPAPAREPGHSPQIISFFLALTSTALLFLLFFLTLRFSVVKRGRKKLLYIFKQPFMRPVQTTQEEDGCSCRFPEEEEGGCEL

B1: ALG.APV-210 (bispecific antibody)
chain: EVQLLESGGGLVQPGGSLRLSCAASGFTFSHGSMYWVRQAPGKGLEWVSSISSGSGSTYYADSVKGRFTISHDNSKNTLYLQMNSLRAEDTAVYYCARSSYYGSYYSIDYWGQGTLVTVSSGGGGSGGGGSGGGGSGGGGSDIQMTQSPSSLSASVGDRVTITCRASQSISSYLNWYQQKPGKAPKLLIYAASSLQSGVPSRFSGSGSGTDFTLTISSLQPEDFATYYCQQYYDNLPTFGQGTKLEIKEPKSSDKTHTCPPCPAPEAAGAPSVFLFPPKPKDTLMISRTPEVTCVVVDVSHEDPEVKFNWYVDGVEVHNAKTKPREEQYNSTYRVVSVLTVLHQDWLNGKEYKCAVSNKALPAPIEKTISKAKGQPREPQVYTLPPSRDELTKNQVSLTCLVKGFYPSDIAVEWESNGQPENNYKTTPPVLDSDGSFFLYSKLTVDKSRWQQGNVFSCSVMHEALHNHYTQKSLSLSPGSGGGGSGGGGSGGGGSPSEVQLLESGGGLVQPGGSLRLSCAASGFTFSSYAMSWVRQAPGKCLEWVSAISGSGGSTYYADSVKGRFTISRDNSKNTLYLQMNSLRAEDTAVYYCARYYGGYYSAWMDYWGQGTLVTVSSGGGGSGGGGSGGGGSGGGGSDIQMTQSPSSLSASVGDRVTITCRASQSISSFLNWYQQKPGKAPKLLIYAASSLQSGVPSRFSGSGSGTDFTLTISSLQPEDSATYYCQQTYGYLHTFGCGTKLEIKR
notes: Optimized ADAPTIR scFv-Fc-scFv homodimer with stabilizing disulfide in the 1210 scFv; also called 5T4-CD137 bispecific antibody
By EC50 is commonly meant the midpoint of the concentration-response curve. A low value points to greater potency. With B1, in the assay with human CD137 on cells, the “EC50 (nM), CD137 reporter assay with CHO/5T4 cells” value was determined as 0.0092 nM; the “EC50 (nM), CD137 reporter assay with H1975 cells” value is 0.037 nM; the “EC50 (nM), CD137 reporter assay with MDA.MB-231 cells” value was 0.054 nM; the “EC50 (nM), CD137 reporter assay with TF-1 cells” value is 0.063 nM. In the assay with human 5T4 on cells [1], the response was half-maximal at 21 nM (EC50). Also, in the assay with FcγRIIa (CD32a His131), the binding result was “no binding (tested: 1000 nM)”.

B2: biotinylated ALG.APV-210 (bispecific antibody)
chain: B1 chain
notes: also called ALG.APV-210 (biotinylated for FACS detection)
By EC50 (read off the curve) is commonly meant the midpoint of the concentration-response curve. Take B2: the “EC50 (read off the curve)” value in the assay with human 5T4 on cells [2] and in the assay with human 5T4 on cells [4] was ~10 nM throughout. Also, the EC50 in the assay with human 5T4 on cells [3] stood at 20 nM.
